The source of these data is patent publication US20170260258A1.

As a reminder, the Kd is the concentration at which binding is half-saturated. High values mean weaker binding, low ones tighter binding. Usually koff stands for a measure of how fast the partners let go of each other. The low end stands for slow dissociation, the high end for fast dissociation. The term kon denotes a measure of how fast the partners come together. High values mean fast association, low ones slow association.

The target of assay [1] is GST-pre-S1 (1st to 56th amino acids) protein (hepatitis B virus) [GST: P08515]. The assay is described as follows: competitive ELISA and BLI (Octet Red). Background: ELISA stands for enzyme-linked immunosorbent assay.
Chain of GST-pre-S1 (1st to 56th amino acids) protein (hepatitis B virus) [GST: P08515] (P08515 whole entry): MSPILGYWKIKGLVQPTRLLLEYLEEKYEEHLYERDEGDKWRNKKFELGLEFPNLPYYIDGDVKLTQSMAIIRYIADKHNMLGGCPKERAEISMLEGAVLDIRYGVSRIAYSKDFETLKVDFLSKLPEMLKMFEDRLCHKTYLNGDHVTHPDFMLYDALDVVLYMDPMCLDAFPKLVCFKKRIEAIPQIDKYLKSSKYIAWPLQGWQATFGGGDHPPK
Assay [2] shares this target. The assay is described as follows: BLI (Octet Red), antibody captured on anti-human Fc tip, GST-pre-S1 in solution.

B1: humanized antibody HzKR127-3.1 (antibody, V domains shown)
VH: QVQLQQSGAEVKKPGASVKVSCKASGYTFTSSWMNWVRQAPGQGLEWMGRIYPGDGDTNYAQKFQGRVTMTADKSTSTVYMELSSLRSEDTAVYYCAREYAEAYWGQGTLVTVSS
VL: DIVMTQTPLSLSVTPGQPASISCKSSQSLLYSNGKTYLNWLLQKPGQPPQRLIYLVSNRDSGVPDRFSGSGSGTDFTLKISRVEAEDVGVYYCVQGTHFPQTFGGGTKVEIKR
Turning to B1, the fold higher affinity than HzKR127-3 in assay [1] came out at 4.9 fold. In assay [2], this molecule gave a Kd of 0.813 nM, a koff of 4.13e-05 s⁻¹ and an association rate constant (kon) of 50800 M⁻¹ s⁻¹.
